Where a chain is given by its changes, count along the chain named. Numbers in names are those of the source.
T1: PUF4 RNA-binding domain (Saccharomyces cerevisiae, UniProt P25339 537-888)
T1 sequence: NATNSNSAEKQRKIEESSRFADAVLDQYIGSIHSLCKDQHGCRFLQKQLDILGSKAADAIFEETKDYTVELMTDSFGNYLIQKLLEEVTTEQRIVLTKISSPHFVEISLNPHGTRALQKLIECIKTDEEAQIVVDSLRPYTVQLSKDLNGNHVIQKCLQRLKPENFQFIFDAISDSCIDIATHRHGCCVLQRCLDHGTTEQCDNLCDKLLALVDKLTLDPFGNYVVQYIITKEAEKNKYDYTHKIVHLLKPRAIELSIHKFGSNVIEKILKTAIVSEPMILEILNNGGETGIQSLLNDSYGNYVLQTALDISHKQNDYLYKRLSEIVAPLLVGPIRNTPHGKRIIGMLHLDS

B1: Id_ii_S2_P4E.3_K4.2_C4.2_H4.2_A4.1_F4.1_T4.2_[T11C] (ssRNA)
RNA: UUUGAUUAAUAUGAUAUCGUUCUUUCUCUUAUAUAUUAGCUUCUUUCUCGAUAUCAUAUUAAUCUUU
B2: Id_ii_S2_P4E.4_K4.3_C4.2_[C-2A]_[T-1A]_H4.3_A4.1_F4.1_T4.2_[G10T]_[T11C] (ssRNA)
RNA: B1 RNA with C28A, U29A, U30A, A31C, U32A, A33C, G39U
B3: Id_ii_S2_P4E.4_K4.3_C4.2_[C-2T]_[T-1A]_H4.3_A4.1_F4.1_T4.2_[G10T]_[T11A] (ssRNA)
RNA: B1 RNA with C28U, U29A, U30A, A31C, U32A, A33C, G39U, C40A
B4: Id_ii_S2_P4E.4_K4.3_C4.2_[C-2A]_H4.3_A4.1_F4.1_T4.2_[G10C]_[T11G] (ssRNA)
RNA: B1 RNA with C28A, U30A, A31C, U32A, A33C, G39C, C40G
B5: Id_ii_S2_P4E.4_K4.3_C4.2_[C-2A]_[T-1A]_H4.3_A4.1_F4.1_T4.2_[G10C]_[T11C] (ssRNA)
RNA: B1 RNA with C28A, U29A, U30A, A31C, U32A, A33C, G39C
B6: Id_ii_S2_P4E.4_K4.3_C4.2_[C-2A]_H4.3_A4.1_F4.1_T4.2_[G10C]_[T11C] (ssRNA)
RNA: B1 RNA with C28A, U30A, A31C, U32A, A33C, G39C
B7: Id_ii_S2_P4E.4_K4.3_C4.2_[C-2G]_H4.3_A4.1_F4.1_T4.2_[G10A]_[T11C] (ssRNA)
RNA: B1 RNA with C28G, U30A, A31C, U32A, A33C, G39A
B8: Id_ii_S2_P4E.4_K4.3_C4.2_[C-2G]_H4.3_A4.1_F4.1_T4.2_[G10A] (ssRNA)
RNA: B1 RNA with C28G, U30A, A31C, U32A, A33C, G39A, C40U
B9: Id_ii_S2_P4E.4_K4.3_C4.2_[C-2T]_[T-1A]_H4.3_A4.1_F4.1_T4.2_[G10C]_[T11A] (ssRNA)
RNA: B1 RNA with C28U, U29A, U30A, A31C, U32A, A33C, G39C, C40A
B10: Id_ii_S2_P4E.4_K4.3_C4.2_[C-2T]_H4.3_A4.1_F4.1_T4.2 (ssRNA)
RNA: B1 RNA with C28U, U30A, A31C, U32A, A33C, C40U
B11: Id_ii_S2_P4E.4_K4.3_C4.2_[C-2T]_[T-1A]_H4.3_A4.1_F4.1_T4.2_[G10A]_[T11A] (ssRNA)
RNA: B1 RNA with C28U, U29A, U30A, A31C, U32A, A33C, G39A, C40A
B12: Id_ii_S2_P4E.4_K4.3_C4.2_[C-2T]_[T-1C]_H4.3_A4.1_F4.1_T4.2_[G10T] (ssRNA)
RNA: B1 RNA with C28U, U29C, U30A, A31C, U32A, A33C, G39U, C40U
B13: Id_ii_S2_P4E.4_K4.3_C4.2_[C-2A]_H4.3_A4.1_F4.1_T4.2_[G10C]_[T11A] (ssRNA)
RNA: B1 RNA with C28A, U30A, A31C, U32A, A33C, G39C, C40A
B14: Id_ii_S2_P4E.4_K4.3_C4.2_[C-2T]_H4.3_A4.1_F4.1_T4.2_[G10A]_[T11A] (ssRNA)
RNA: B1 RNA with C28U, U30A, A31C, U32A, A33C, G39A, C40A
B15: Id_ii_S2_P4E.4_K4.3_C4.2_[C-2G]_H4.3_A4.1_F4.1_T4.2_[G10A]_[T11A] (ssRNA)
RNA: B1 RNA with C28G, U30A, A31C, U32A, A33C, G39A, C40A
B16: Id_ii_S2_P4E.4_K4.3_C4.2_[C-2A]_[T-1C]_H4.3_A4.1_F4.1_T4.2_[G10T]_[T11C] (ssRNA)
RNA: B1 RNA with C28A, U29C, U30A, A31C, U32A, A33C, G39U
B17: Id_ii_S2_P4E.4_K4.3_C4.2_[C-2A]_H4.3_A4.1_F4.1_T4.2_[G10A]_[T11C] (ssRNA)
RNA: B1 RNA with C28A, U30A, A31C, U32A, A33C, G39A
B18: Id_ii_S2_P4E.4_K4.3_C4.2_[C-2G]_H4.3_A4.1_F4.1_T4.2_[G10C]_[T11C] (ssRNA)
RNA: B1 RNA with C28G, U30A, A31C, U32A, A33C, G39C
B19: Id_ii_S2_P4E.4_K4.3_C4.2_[C-2T]_[T-1C]_H4.3_A4.1_F4.1_T4.2_[G10C] (ssRNA)
RNA: B1 RNA with C28U, U29C, U30A, A31C, U32A, A33C, G39C, C40U
B20: Id_ii_S2_P4E.4_K4.3_C4.2_[C-2T]_H4.3_A4.1_F4.1_T4.2_[G10A]_[T11C] (ssRNA)
RNA: B1 RNA with C28U, U30A, A31C, U32A, A33C, G39A
B21: Id_ii_S2_P4E.4_K4.3_C4.2_[C-2T]_H4.3_A4.1_F4.1_T4.2_[G10A] (ssRNA)
RNA: B1 RNA with C28U, U30A, A31C, U32A, A33C, G39A, C40U
B22: If_S2_P4E.3_K4.2_C4.2_H4.2_A4.1_F4.1_T4.2 (ssRNA)
RNA: B1 RNA with C40U
B23: Id_ii_S2_P4E.4_K4.3_C4.2_[C-2T]_[T-1C]_H4.3_A4.1_F4.1_T4.2_[G10C]_[T11C] (ssRNA)
RNA: B1 RNA with C28U, U29C, U30A, A31C, U32A, A33C, G39C
B24: Id_ii_S2_P4E.4_K4.3_C4.2_[C-2A]_[T-1A]_H4.3_A4.1_F4.1_T4.2_[G10A] (ssRNA)
RNA: B1 RNA with C28A, U29A, U30A, A31C, U32A, A33C, G39A, C40U
B25: Id_ii_S2_P4E.4_K4.3_C4.2_[C-2A]_[T-1C]_H4.3_A4.1_F4.1_T4.2_[G10C] (ssRNA)
RNA: B1 RNA with C28A, U29C, U30A, A31C, U32A, A33C, G39C, C40U
B26: Id_ii_S2_P4E.4_K4.3_C4.2_[C-2A]_[T-1C]_H4.3_A4.1_F4.1_T4.2_[G10T]_[T11A] (ssRNA)
RNA: B1 RNA with C28A, U29C, U30A, A31C, U32A, A33C, G39U, C40A
B27: Id_ii_S2_P4E.4_K4.3_C4.2_[C-2T]_[T-1A]_H4.3_A4.1_F4.1_T4.2_[G10T] (ssRNA)
RNA: B1 RNA with C28U, U29A, U30A, A31C, U32A, A33C, G39U, C40U
B28: Id_ii_S2_P4E.4_K4.3_C4.2_[C-2T]_[T-1C]_H4.3_A4.1_F4.1_T4.2_[G10T]_[T11A] (ssRNA)
RNA: B1 RNA with C28U, U29C, U30A, A31C, U32A, A33C, G39U, C40A
B29: Id_ii_S2_P4E.4_K4.3_C4.2_[C-2T]_[T-1C]_H4.3_A4.1_F4.1_T4.2_[G10A]_[T11A] (ssRNA)
RNA: B1 RNA with C28U, U29C, U30A, A31C, U32A, A33C, G39A, C40A
B30: Id_ii_S2_P4E.4_K4.3_C4.2_[C-2G]_[T-1C]_H4.3_A4.1_F4.1_T4.2 (ssRNA)
RNA: B1 RNA with C28G, U29C, U30A, A31C, U32A, A33C, C40U
B31: Id_ii_S2_P4E.4_K4.3_C4.2_[C-2A]_[T-1A]_H4.3_A4.1_F4.1_T4.2_[G10C] (ssRNA)
RNA: B1 RNA with C28A, U29A, U30A, A31C, U32A, A33C, G39C, C40U
B32: Id_ii_S2_P4E.4_K4.3_C4.2_[C-2A]_H4.3_A4.1_F4.1_T4.2_[G10T]_[T11C] (ssRNA)
RNA: B1 RNA with C28A, U30A, A31C, U32A, A33C, G39U
B33: Id_ii_S2_P4E.4_K4.3_C4.2_[C-2A]_H4.3_A4.1_F4.1_T4.2_[G10T] (ssRNA)
RNA: B1 RNA with C28A, U30A, A31C, U32A, A33C, G39U, C40U
B34: Id_ii_S2_P4E.4_K4.3_C4.2_[C-2A]_H4.3_A4.1_F4.1_T4.2_[G10C] (ssRNA)
RNA: B1 RNA with C28A, U30A, A31C, U32A, A33C, G39C, C40U
B35: Id_ii_S2_P4E.4_K4.3_C4.2_[C-2G]_H4.3_A4.1_F4.1_T4.2_[G10T]_[T11A] (ssRNA)
RNA: B1 RNA with C28G, U30A, A31C, U32A, A33C, G39U, C40A
B36: Id_ii_S2_P4E.4_K4.3_C4.2_[C-2G]_[T-1C]_H4.3_A4.1_F4.1_T4.2_[G10A]_[T11A] (ssRNA)
RNA: B1 RNA with C28G, U29C, U30A, A31C, U32A, A33C, G39A, C40A
B37: Id_ii_S2_P4E.4_K4.3_C4.2_[C-2T]_[T-1A]_H4.3_A4.1_F4.1_T4.2 (ssRNA)
RNA: B1 RNA with C28U, U29A, U30A, A31C, U32A, A33C, C40U
B38: Id_ii_S2_P4E.4_K4.3_C4.2_[C-2T]_H4.3_A4.1_F4.1_T4.2_[G10C]_[T11C] (ssRNA)
RNA: B1 RNA with C28U, U30A, A31C, U32A, A33C, G39C
B39: Id_ii_S2_P4E.4_K4.3_C4.2_[C-2A]_[T-1C]_H4.3_A4.1_F4.1_T4.2_[G10A]_[T11A] (ssRNA)
RNA: B1 RNA with C28A, U29C, U30A, A31C, U32A, A33C, G39A, C40A
B40: Id_ii_S2_P4E.4_K4.3_C4.2_[C-2T]_H4.3_A4.1_F4.1_T4.2_[G10C]_[T11A] (ssRNA)
RNA: B1 RNA with C28U, U30A, A31C, U32A, A33C, G39C, C40A

Molecular target: T1, PUF4 RNA-binding domain
Experiment: Mg; RNA-MaP; 20 mM Na-HEPES pH 7.4, 30 mM KOAc, 0.75 mM MgCl2, 0.1% Tween-20, 5% glycerol, 0.1 mg/mL BSA, 2 mM DTT; 25 C; 0.0125-409.6 nM protein
Conditions: tags: N-His6-TEV cleaved; C-SNAP kept, Cy3B-labelled; label: tethered on chip by stalled RNA polymerase

Binder | Kd [nM]
UCUCUUUGUACUAGUAUCUCUU (ssRNA) [Ib_S1_P5E.1_K5.1_C5.1_H5.1_A5.1_[T5C]_F5.1_[T8G]_T5.1] | 23.5
UCUCUUUGUACUACUAUCUCUU (ssRNA) [Ib_S1_P5E.1_K5.1_C5.1_H5.1_A5.1_[T5C]_F5.1_[T8C]_T5.1] | 10.9
B1 | 7.25
B2 | > 2300
B3 | 882
B4 | 47.6
B5 | > 2300
B6 | 10.8
B7 | 0.5
B8 | 0.412
B9 | 2190
B10 | 2020
B11 | > 2300
B12 | 1530
B13 | 11.4
B14 | 806
B15 | 0.354
B16 | > 2300
B17 | 9.57
B18 | 0.865
B19 | > 2300
B20 | 305
B21 | 445

Binder | Kd [nM]
B22 | 10.4
B23 | > 2300
B24 | > 2300
B25 | > 2300
B26 | 592
B27 | 2160
B28 | 479
B29 | > 2300
B30 | 448
B31 | > 2300
B32 | 10.3
B33 | 12.3
B34 | 9.11
B35 | 0.496
B36 | 23.6
B37 | > 2300
B38 | 306
B39 | > 2300
B40 | 198
UCUCUUUGUAAUAGUAUCUCUU (ssRNA) [Ib_S1_P5E.1_K5.1_C5.1_H5.1_A5.1_[T5A]_F5.1_[T8G]_T5.1] | 21.4
UCUCUUUGCAUUAUUAUCUCUU (ssRNA) [Ia_S1_P5E.1_K5.1_C5.1_H5.1_[T3C]_A5.1_F5.1_T5.1] | 1250
UCUCUUUGUUUUAUUUUCUCUU (ssRNA) [Ib_S1_P5E.1_K5.1_C5.1_H5.1_[A4T]_A5.1_F5.1_[A10T]_T5.1] | 864

Source: PMC9352680, “A comprehensive thermodynamic model for RNA binding by the Saccharomyces cerevisiae Pumilio protein PUF4”
